Consider 2 substances from US9850292B2, “Compositions which regulate the epithelial brush border Na+/H+ exchanger NHE3 and their methods of use in gastrointestinal disease” (THE JOHNS HOPKINS UNIVERSITY, priority 2012, dated 2017).

Like-named read-outs stand apart in the source and are kept apart here. The star is where a group is joined. Biotin = O=C1N[C@H]2[C@H](CS[C@H]2CCCCC(=O)*)N1

The target of assay [1] is T1, rabbit NHE3 (rNHE3) (Oryctolagus cuniculus, UniProt P26432). It is filed as cell-based. Also noted: amplified from pcDNA 3.1 containing the full-length NHE3V (pcDNA 3.1/NHE3V); expressed in transfected cells.
T1 sequence (P26432 30-832): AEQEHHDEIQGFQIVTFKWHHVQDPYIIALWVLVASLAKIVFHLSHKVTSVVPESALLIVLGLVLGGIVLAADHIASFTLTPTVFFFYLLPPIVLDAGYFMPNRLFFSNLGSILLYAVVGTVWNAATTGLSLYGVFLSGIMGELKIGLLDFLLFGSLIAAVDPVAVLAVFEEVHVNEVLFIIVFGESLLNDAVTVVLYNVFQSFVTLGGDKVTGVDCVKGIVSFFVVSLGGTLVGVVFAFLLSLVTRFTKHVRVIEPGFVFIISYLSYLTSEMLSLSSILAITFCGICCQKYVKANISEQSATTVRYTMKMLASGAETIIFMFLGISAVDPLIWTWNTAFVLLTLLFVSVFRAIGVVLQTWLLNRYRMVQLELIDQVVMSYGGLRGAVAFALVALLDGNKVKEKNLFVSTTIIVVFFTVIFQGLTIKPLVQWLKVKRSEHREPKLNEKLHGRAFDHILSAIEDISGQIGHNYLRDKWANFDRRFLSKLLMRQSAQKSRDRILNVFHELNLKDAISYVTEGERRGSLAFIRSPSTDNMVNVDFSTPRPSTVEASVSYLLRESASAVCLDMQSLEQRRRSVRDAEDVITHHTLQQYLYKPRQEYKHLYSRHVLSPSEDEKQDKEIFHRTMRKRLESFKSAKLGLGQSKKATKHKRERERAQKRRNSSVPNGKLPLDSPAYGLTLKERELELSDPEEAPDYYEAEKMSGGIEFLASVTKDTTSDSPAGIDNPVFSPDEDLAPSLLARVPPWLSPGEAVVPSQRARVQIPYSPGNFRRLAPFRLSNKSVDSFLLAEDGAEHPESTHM
Assay [2] addresses T1, rabbit NHE3 (rNHE3). Put plainly: BCECF/fluorometry Na+/H+ exchange activity in Caco-2 cells. It is filed as cell-based. Also noted: expressed in transfected cells; host or cells: Caco-2BBe cells, transient adenoviral infection (ADLOX.HTM shuttle vector, CMV promoter). The procedure: (§1) FIG. 4A is a bar graph depicting the results when Caco-2/HA-NHE3 cells were exposed to IRCX-CP (400 nM) for 15 minutes then basal, carbachol (cch) (10 μM) inhibited and EGF (200 ng/ml) stimulated NHE3 were determined (n=4). FIG. 4B is another bar graph depicting the effects when mouse jejunum was exposed in vitro to IRCX-CP (400 nM) and/or forskolin (10 μM) for 15 minutes with NHE3 activity determined by BCECF.
Cell Lines. PS120 fibroblasts lack all endogenous plasma membrane NHEs, NHERF1 (minimal expression), NHERF2, NHERF3 and NHERF4. These cells, when stably expressing rabbit NHE3 with a C-terminal VSV-G protein epitope tag and NHERF2, are called PS120/NHE3/NHERF2 cells (or PS120/E3V/NHERF2 cells), as described (stable cell lines made using pcDNA 3.1, G418 and hygromycin, Invitrogen). Caco-2BBe cells express all four members of the NHERF gene family and small amounts NHE3 (Caco-2BBe/3HA-NHE3 cells). Triple HA-tagged rabbit NHE3 was expressed by adenovirus into Caco-2BBe cells for transport and biochemical analysis.
Adenoviral Constructs/Infection. Caco-2BBe cells which endogenously express the four members of the NHERF gene family and small amounts of NHE3 were transiently infected with triple HA-tagged rNHE3 previously engineered into replication-deficient Adeno-viral shuttle vector ADLOX.HTM under a cytomegalovirus promoter. Caco-2BBe cells were first grown on Transwell filters (Corning) until 12 days post-confluence in “Caco-2 medium.” Cells were then treated with serum-free media containing 6 mM EGTA for 2 hours at 37° C. to allow the tight junctions to open, further exposing apical and basolateral surfaces to the virus. […]
Measurement of Na^+/H^+ Exchange. Cellular Na^+/H^+ exchange activity in PS 120 cells grown to about 70% confluency on glass coverslips was determined fluorometrically using the intracellular pH-sensitive dye 2′,7′-bis(carboxyethyl)5-6-carboxyfluoresceinacetoxymethyl ester (BCECF-AM, 5μM; Molecular Probes, Eugene, Oreg.). […] At the end of each experiment, the fluorescence ratio was calibrated to pHi using the high potassium/nigericin method. Na^+/H^+ exchange activity data were calculated as the product of Na^+ dependent changes in pHi times the buffering capacity at each pHi, and individual points shown in the figures are ratios of Na^+/H^+ exchange calculated at multiple pHi values using at least three coverslips per condition in a single experiment. Kinetics of Na^+/H^+ exchange were analyzed by Hill plot using Origin (Microcal Software) to estimate Vmax and K′(H^+)i in individual experiments. Means+/−S.E.M. were determined from at least three separate experiments. […]

The target in assay [3] is T2, NHE3 (Mus musculus, UniProt G3X939).
T2 construct: from tissue; host or cells: mouse jejunum, exposed in vitro
T2 sequence (G3X939 27-829): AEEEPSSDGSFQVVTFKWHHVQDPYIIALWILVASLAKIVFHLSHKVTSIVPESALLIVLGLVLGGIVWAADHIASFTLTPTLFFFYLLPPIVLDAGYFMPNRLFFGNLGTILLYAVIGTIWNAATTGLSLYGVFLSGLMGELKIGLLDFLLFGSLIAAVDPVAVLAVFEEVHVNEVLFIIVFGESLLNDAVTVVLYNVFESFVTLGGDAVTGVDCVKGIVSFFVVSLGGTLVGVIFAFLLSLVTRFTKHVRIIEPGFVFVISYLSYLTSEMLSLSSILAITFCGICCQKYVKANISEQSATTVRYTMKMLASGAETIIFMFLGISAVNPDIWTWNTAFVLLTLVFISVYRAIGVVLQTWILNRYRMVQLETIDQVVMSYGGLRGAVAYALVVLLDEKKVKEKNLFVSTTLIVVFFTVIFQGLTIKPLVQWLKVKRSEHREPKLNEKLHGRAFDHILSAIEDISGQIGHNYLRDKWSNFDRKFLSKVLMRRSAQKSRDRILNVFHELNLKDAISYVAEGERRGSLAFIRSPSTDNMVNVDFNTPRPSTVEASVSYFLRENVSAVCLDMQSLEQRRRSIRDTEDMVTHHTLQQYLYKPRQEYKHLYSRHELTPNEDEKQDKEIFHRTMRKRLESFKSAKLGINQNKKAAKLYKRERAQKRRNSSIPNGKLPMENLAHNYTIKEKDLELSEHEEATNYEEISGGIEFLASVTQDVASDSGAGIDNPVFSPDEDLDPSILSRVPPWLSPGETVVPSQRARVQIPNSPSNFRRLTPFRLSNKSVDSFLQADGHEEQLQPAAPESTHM
Put plainly: NHE3 activity in mouse jejunum in vitro, BCECF/microscopy. It is filed as cell-based. Conditions: FIG. 4B. The procedure:
as §1
The fluorescent peptides described above were then loaded into PS120/NHERF2/NHE3, Caco2/NHE3 cells, and mouse small intestine. It was established that loading reaches a maximum in 15 minutes (37° C.) (FIG. 3) and is stable for at least 6 hours. To evaluate the effect of these peptides on NHE3 regulation, PS120 and Caco-2 cells were exposed to 400-1600 nM Bodipy 577/618-peptide and used BCECF/fluorometry to characterize the peptide's effects on basal NHE3 activity and after Ca^2+ elevation and EGF exposure. In studies in both cell types, all peptide concentrations studied stimulated basal NHE3 activity by about 40%, and reduced Ca^2+ inhibition of NHE3 by about 50% in PS 120 cells (data not shown) and entirely in Caco-2 cells (FIG. 4A).

Assay [4] has as its system murine jejunum exposed to cholera toxin. To be noted: mouse, in vivo.

As to “NVDFSTPRPSTVEASVSYLLRESASAVCLDMQSLEQRR (listed as Oryctolagus cuniculus) [peptide without Bodipy]”, the “effect on NHE3 activity” value in assay [1] and in assay [2] was “did not alter NHE3 activity” in each case.
“Bodipy 577/618-peptide: 38 aa rabbit NHE3 aa 568-605 peptide (SEQ ID NO: 1), biotin on N-terminus, C-terminus linked to Bodipy 577/618 maleimide (Biotin-NVDFSTPRPSTVEASVSYLLRESASAVCLDMQSLEQRR-{Bodipy 577/618 maleimide}; listed as Oryctolagus cuniculus)”: the “stimulation of basal NHE3 activity” value in assay [3] (400 nM, 15 minutes) is given as 60%; in assay [1] it was “about 40%”; in assay [2] (400-1600 nM peptide, all concentrations studied) it was “about 40%”. For the same substance, the “prevention of NHE3 inhibition by forskolin” value in assay [3] (forskolin 10 μM, 400 nM peptide) is on record as “totally prevented”. Moreover, in assay [4], the “cholera toxin fluid accumulation” value is recorded as “prevented cholera toxin fluid accumulation”. Besides, the “peptide concentration at which effects were maximum” value in assay [1] and in assay [2] (effect at saturation) was 400 nM each time. Also, the “reduction of Ca2+ inhibition of NHE3” value is “about 50%” in assay [1] and “entirely” in assay [2] (after Ca2+ elevation (carbachol 10 μM), FIG. 4A).
